In paper PMC6385242, “Identification and characterization of a factor Va-binding site on human prothrombin fragment 2” (Scientific Reports, 2019):
pKd: −log10 of the molar value.

Tests used:
[1] = target: Factor Va (UniProt P12259)
[2] = target: Factor Va (UniProt P12259); remark: listed apart in the source
[3] = target: Factor Va (UniProt P12259); assay: SPR; Biacore T200; FVa amine-coupled on a CM5 chip (8000-9000 RU); prothrombin 0-10,000 nM injected for 60 s at 30 uL/min; HBS (0.02 M HEPES, 0.15 M NaCl, pH 7.4) with 5 mM CaCl2 and 0.01% Tween-80; kinetic 1:1 Langmuir model

Factor Va, sequence (P12259 29-737, chain 1 of 2): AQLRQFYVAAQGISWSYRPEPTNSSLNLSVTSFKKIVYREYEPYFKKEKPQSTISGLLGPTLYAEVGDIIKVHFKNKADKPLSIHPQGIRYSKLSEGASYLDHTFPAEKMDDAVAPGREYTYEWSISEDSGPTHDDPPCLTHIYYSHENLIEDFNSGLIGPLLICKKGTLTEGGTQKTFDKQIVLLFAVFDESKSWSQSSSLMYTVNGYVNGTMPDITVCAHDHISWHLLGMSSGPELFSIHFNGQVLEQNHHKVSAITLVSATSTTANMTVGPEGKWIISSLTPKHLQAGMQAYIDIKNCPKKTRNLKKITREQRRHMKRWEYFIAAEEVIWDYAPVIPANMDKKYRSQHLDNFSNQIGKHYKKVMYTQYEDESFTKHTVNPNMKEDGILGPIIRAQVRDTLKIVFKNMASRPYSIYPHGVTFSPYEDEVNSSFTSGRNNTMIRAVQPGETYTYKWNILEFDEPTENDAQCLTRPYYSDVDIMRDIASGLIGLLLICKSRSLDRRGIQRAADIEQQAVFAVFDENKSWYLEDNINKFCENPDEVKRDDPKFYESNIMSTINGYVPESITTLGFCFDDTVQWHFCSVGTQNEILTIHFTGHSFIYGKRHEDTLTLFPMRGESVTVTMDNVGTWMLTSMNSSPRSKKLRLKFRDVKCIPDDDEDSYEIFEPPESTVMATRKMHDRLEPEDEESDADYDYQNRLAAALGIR
Factor Va, sequence (P12259 1574-2224, chain 2 of 2): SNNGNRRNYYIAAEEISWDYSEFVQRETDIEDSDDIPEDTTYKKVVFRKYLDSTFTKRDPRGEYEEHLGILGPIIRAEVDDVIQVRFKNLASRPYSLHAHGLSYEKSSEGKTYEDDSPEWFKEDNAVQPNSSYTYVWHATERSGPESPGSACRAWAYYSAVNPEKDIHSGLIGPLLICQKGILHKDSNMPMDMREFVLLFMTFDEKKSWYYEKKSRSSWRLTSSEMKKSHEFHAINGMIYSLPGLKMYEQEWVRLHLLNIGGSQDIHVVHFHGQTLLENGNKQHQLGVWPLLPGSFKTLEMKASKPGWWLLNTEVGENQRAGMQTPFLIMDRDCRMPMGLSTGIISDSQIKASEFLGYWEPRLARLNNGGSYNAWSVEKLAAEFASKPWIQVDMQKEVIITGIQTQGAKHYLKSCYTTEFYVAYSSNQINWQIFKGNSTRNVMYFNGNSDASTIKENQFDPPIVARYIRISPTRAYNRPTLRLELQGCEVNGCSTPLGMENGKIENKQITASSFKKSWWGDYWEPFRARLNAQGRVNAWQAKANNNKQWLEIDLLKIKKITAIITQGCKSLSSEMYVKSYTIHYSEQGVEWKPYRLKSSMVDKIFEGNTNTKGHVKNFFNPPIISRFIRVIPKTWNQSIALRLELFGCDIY

initial rate of thrombin generation, activation by FXa/FVa (5 nM FXa, 20 nM FVa, 5 mM CaCl2; DAPA) [1]: 0.0053 s⁻¹
initial rate of thrombin generation, activation by full prothrombinase (20 pM FXa, 20 nM FVa, 50 uM PCPS, 5 mM CaCl2; DAPA) [1]: 55.1 s⁻¹
total thrombin generated on activation by FXa/FVa, relative to wild-type prothrombin (% of wild type) [2]: 35
total thrombin generated on activation by full prothrombinase, decrease against wild-type prothrombin (% lower than wild type) [2]: 42
pKd [3]: 5.59
Substance: PT6 prothrombin (Gln177Ala, Gln179Ala, Arg181Ala, Leu182Thr, Val184Thr, Thr185Ala) (natural protein)
